Test results from PMC5601012 (Molecular pharmaceutics, 2017).
Where two headings read alike, the source gives them in different places.

Legend:
[1] = target: T1, programmed death-1 (PD-1) on EL4 cells (mouse (endogenous in EL4), UniProt Q02242); test: flow cytometry on cells
[2] = target: T1, programmed death-1 (PD-1) on EL4 cells; test: flow cytometry on cells; remark: listed apart in the source

T1 sequence (Q02242 25-288): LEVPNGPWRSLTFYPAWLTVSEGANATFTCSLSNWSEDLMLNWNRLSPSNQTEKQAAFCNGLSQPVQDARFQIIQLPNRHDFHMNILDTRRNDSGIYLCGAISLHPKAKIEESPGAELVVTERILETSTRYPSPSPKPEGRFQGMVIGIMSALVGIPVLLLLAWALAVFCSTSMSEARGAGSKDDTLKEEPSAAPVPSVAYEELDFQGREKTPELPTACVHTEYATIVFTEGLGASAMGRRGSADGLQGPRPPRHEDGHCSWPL

| Binder | EC50 [1] | EC50 [2] |
| --- | --- | --- |
| αPD-1 scFv, NH2-Histag(H6)-(GGGSG)3-VH-(GGGSG)4-VL-COOH (scFv, V domains shown) VH: EVQLQESGPGLVKPSQSLSLTCSVTGYSITSSYRWNWIRKFPGNRLEWMGYINSAGISNYNPSLKRRISITRDTSKNQFFLQVNSVTTEDAATYYCARSDNMGTTPFTYWGQGTLVTVSS VL: DIVMTQGTLPNPVPSGESVSITCRSSKSLLYSDGKTYLNWYLQRPGQSPQLLIYWMSTRASGVSDRFSGSGSGTDFTLKISGVEAEDVGIYYCQQGLEFPTFGGGTKLELK | 320 nM | 4160 nM |
| intact anti-programmed death-1 antibody (αPD-1), clone RMP1-14 (antibody, V domains shown) VH: EVQLQESGPGLVKPSQSLSLTCSVTGYSITSSYRWNWIRKFPGNRLEWMGYINSAGISNYNPSLKRRISITRDTSKNQFFLQVNSVTTEDAATYYCARSDNMGTTPFTYWGQGTLVTVSS VL: DIVMTQGTLPNPVPSGESVSITCRSSKSLLYSDGKTYLNWYLQRPGQSPQLLIYWMSTRASGVSDRFSGSGSGTDFTLKISGVEAEDVGIYYCQQGLEFPTFGGGTKLELK |  | 1320 nM |
